Measurements reported in patent US9611297 (THRASOS THERAPEUTICS, dated 2017).
Positions of bridges follow the written chain, without caps; N, C: chain ends. Non-standard residues stand in square brackets, D forms with d. No end group written: not given here.

What was measured:
[1] = biological target: T1, human uromodulin (human, UniProt P07911 25-614); assay: competition ELISA; biotin-uromodulin + peptide on coated light chain BER (competitor)
Protocol: (§1) Enzyme-linked immunosorbant assays (ELISA) were performed on the disclosed peptides. Plates were coated with the following light chain clones overnight at 4° C.: 0.05 uM BER (subtype lambda, isolated from SP2/0 cells), 0.2 uM ROC (subtype kappa, isolated from CHO cells), and 0.3 uM BEN (subtype lambda, isolated from CHO cells). The plates were washed and treated with bovine serum albumin (BSA) overnight at 4° C. For peptide plates, 10 nM biotin-uromodulin was mixed with peptide overnight at 4° C.

[2] = biological target: T1, human uromodulin; assay: competition ELISA; biotin-uromodulin + peptide on coated light chain ROC (competitor)
Protocol: as §1

B1: SEQ ID No. 47 (peptide)
peptide: [dK][dK]CQQS[dY]SIPYTC[dK][dK]
modifications: disulfide 3-13 (inferred)
notes: synthetic; disulfide bridge formed per general procedure; also called K*K*CQQSY*SIPYTCK*K*
For B1, the IC50 [1] was 32.3 µM and the IC50 [2] was 33.5 µM.
